{
  "source": "patent US9539338B2",
  "about": "“Polymer-based protein engineering methods to rationally tune enzyme activity, pH-dependence and stability” (Carnegie Mellon University, priority 2013, dated 2017)",
  "key": {"[1]": {"assay": "Size measurements during 167 mM HCl (pH 1) incubation", "format": "physicochemical", "description": "CT conjugates (4 μM) and native CT (29 μM) passed through a […] cellulose filter were incubated in 167 mM HCl at 37° C. in 1 mL aliquots. Aliquots were removed from incubation at each specified time point. Hydrodynamic diameter was then determined using a Malvern zetasizer nano-ZS at 25° C. Intensity PSD measurements, averaged over five sample runs at each time point, were used to calculate hydrodynamic diameter (Dh)."}, "[2]": {"assay": "Stability at 50 or 60° C. (chymotrypsin-pQA)", "format": "physicochemical", "conditions": "0.1 M sodium phosphate buffer pH 8.0", "description": "[…] Aliquots (50 μL) were removed and kept at 0° C. before measuring residual activity. The residual activity was calculated as a ratio of initial rates of hydrolysis reaction at given incubation time over the initial activity for each specific sample."}},
  "data": [
    {"substance": "α-Chymotrypsin (CT) from bovine pancreas (type II) [Native CT]", "values": [
      {"measurement": "increase of hydrodynamic diameter (Dh)", "setting": "[1]; 37° C., after 2 hours", "value": 9, "unit": "fold"},
      {"measurement": "hydrodynamic diameter Dh at time zero", "setting": "[1]; time zero", "value": "6.3±0.5", "unit": "nm"},
      {"measurement": "time after which all activity was lost", "setting": "[2]; 50° C.", "value": 2, "unit": "h"},
      {"measurement": "time in which all activity was lost", "setting": "[2]; 60° C.", "value": 30, "unit": "min"}
    ]}
  ]
}
